Data reported in patent publication US20170002084A1.

How the values were obtained:
Canine CD20 (canine) [1] = molecular target: Canine CD20 (canine) (UniProt Q3C2E2); test: cell-based or functional assay
Canine CD20 (canine) [2] = molecular target: Canine CD20 (canine) (UniProt Q3C2E2); test: FACS on CHO cells expressing recombinant canine CD20

Chain of Canine CD20 (canine) (Q3C2E2 other isoform, or with tags, fused parts or gaps): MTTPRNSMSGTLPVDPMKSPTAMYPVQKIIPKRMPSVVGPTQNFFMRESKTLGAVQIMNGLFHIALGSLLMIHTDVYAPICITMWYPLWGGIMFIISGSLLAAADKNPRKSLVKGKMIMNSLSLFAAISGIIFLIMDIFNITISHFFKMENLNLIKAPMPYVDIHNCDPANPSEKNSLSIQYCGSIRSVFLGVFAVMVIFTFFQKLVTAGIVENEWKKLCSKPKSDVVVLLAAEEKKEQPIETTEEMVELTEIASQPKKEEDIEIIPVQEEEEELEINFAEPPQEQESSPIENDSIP

B1: anti-canine CD20 antibody CD20-4 (antibody, part only; not given: light chain, V domains shown, part only)
VH: EVQLQQSVAELVRPGASVTLSCKASGYTFTDYEMHWVKQTPVHGLEWIGEIDPETGGTAYNQKFKGKAILTADKSSSTAYMELRSLTSEDSAVYYCTEYAMDYWGQGTSVTVSS
Work on B1 yielded a Reduction (%) of cell proliferation of lymphoma cells (Canine CD20 (canine) [1]) of 17.5% and a Kd (Canine CD20 (canine) [2]) of 77.4 nM.
